Each block holds one sequence with its values, some of them ahead of it.
Tests used:
HLA-A*02:01 [1] = test: IEDB peptide-MHC binding, purified MHC/direct/fluorescence; filed as Kd, often an IC50 or EC50 that approximates it; ≥ and ≤ were set here for values at or beyond the usual limits of such assays; details: source organism: Homo sapiens
HLA-A*69:01 = test: as above
HLA-B*07:02 = test: as above
HLA-B*15:01 = test: as above
HLA-B*40:01 = test: as above
HLA-A*02:50 = test: IEDB peptide-MHC binding, purified MHC/competitive/fluorescence; filed as Kd, often an IC50 or EC50 that approximates it; ≥ and ≤ were set here for values at or beyond the usual limits of such assays; details: source organism: Homo sapiens
HLA-A*24:03 [2] = test: as above; details: source organism: Homo sapiens
HLA-A*25:01 = test: as above; details: source organism: Homo sapiens
HLA-A*29:02 = test: as above; details: source organism: Homo sapiens
HLA-A*30:01 [3] = test: as above; details: source organism: Homo sapiens
HLA-B*44:02 = test: as above; details: source organism: Homo sapiens
HLA-B*51:01 = test: as above
HLA-B*57:01 [4] = test: as above; details: source organism: Homo sapiens
HLA-B*58:01 [5] = test: IEDB peptide-MHC binding, purified MHC/competitive/fluorescence; ≥ and ≤ were set here for values at or beyond the usual limits of such assays; details: source organism: Homo sapiens
HLA-B*15:02 = test: IEDB peptide-MHC binding, purified MHC/competitive/fluorescence; filed as Kd, often an IC50 or EC50 that approximates it; ≥ and ≤ were set here for values at or beyond the usual limits of such assays; details: source organism: Toxoplasma gondii RH
HLA-A*01:01 = test: IEDB peptide-MHC binding, purified MHC/direct/fluorescence; filed as Kd, often an IC50 or EC50 that approximates it; ≥ and ≤ were set here for values at or beyond the usual limits of such assays; details: source organism: Marburg virus - Musoke, Kenya, 1980
HLA-A*03:01 = test: as above; details: source organism: Marburg virus - Musoke, Kenya, 1980
HLA-A*26:01 = test: as above; details: source organism: Ravn virus - Ravn, Kenya, 1987
HLA-A*30:01 [6] = test: as above; details: source organism: Ravn virus - Ravn, Kenya, 1987
HLA-A*31:01 = test: as above; details: source organism: Marburg virus - Musoke, Kenya, 1980
HLA-B*15:17 = test: as above; details: source organism: Marburg virus - Musoke, Kenya, 1980
HLA-B*18:01 = test: as above; details: source organism: Marburg virus - Musoke, Kenya, 1980
HLA-B*27:05 = test: as above; details: source organism: Marburg virus - Musoke, Kenya, 1980
HLA-B*38:01 = test: as above; details: source organism: Ravn virus - Ravn, Kenya, 1987
HLA-B*46:01 [7] = test: as above; details: source organism: Marburg virus - Musoke, Kenya, 1980
HLA-B*48:01 = test: as above; details: source organism: Marburg virus - Musoke, Kenya, 1980
HLA-B*57:01 [8] = test: as above; details: source organism: Marburg virus - Musoke, Kenya, 1980
HLA-B*58:01 [9] = test: as above; details: source organism: Marburg virus - Musoke, Kenya, 1980
HLA-A*02:01 [10] = test: IEDB peptide-MHC binding, purified MHC/competitive/fluorescence; filed as Kd, often an IC50 or EC50 that approximates it; ≥ and ≤ were set here for values at or beyond the usual limits of such assays; details: source organism: Orthomarburgvirus marburgense
HLA-A*11:01 = test: as above; details: source organism: Orthomarburgvirus marburgense
HLA-B*39:01 = test: as above; details: source organism: Orthomarburgvirus marburgense
HLA-B*53:01 = test: IEDB peptide-MHC binding, purified MHC/competitive/fluorescence; ≥ and ≤ were set here for values at or beyond the usual limits of such assays; details: source organism: Ornithorhynchus anatinus
HLA-A*24:03 [11] = test: IEDB peptide-MHC binding, purified MHC/direct/fluorescence; filed as Kd, often an IC50 or EC50 that approximates it; ≥ and ≤ were set here for values at or beyond the usual limits of such assays; details: source organism: Giardia lamblia ATCC 50803
HLA-C*12:03 = test: as above; details: source organism: Giardia lamblia ATCC 50803
HLA-A*32:07 = test: IEDB peptide-MHC binding, purified MHC/competitive/fluorescence; filed as Kd, often an IC50 or EC50 that approximates it; ≥ and ≤ were set here for values at or beyond the usual limits of such assays; details: source organism: Giardia lamblia ATCC 50803
HLA-A*32:15 = test: as above; details: source organism: Giardia lamblia ATCC 50803
HLA-A*68:23 = test: as above; details: source organism: Giardia lamblia ATCC 50803
HLA-B*15:42 = test: as above; details: source organism: Giardia lamblia ATCC 50803
HLA-B*45:06 = test: as above; details: source organism: Giardia lamblia ATCC 50803
HLA-B*46:01 [12] = test: as above; details: source organism: Giardia lamblia ATCC 50803
HLA-B*83:01 = test: as above; details: source organism: Giardia lamblia ATCC 50803
HLA-C*04:01 = test: as above; details: source organism: Giardia lamblia ATCC 50803
HLA-C*06:02 = test: as above; details: source organism: Giardia lamblia ATCC 50803
HLA-C*14:02 = test: as above; details: source organism: Giardia lamblia ATCC 50803
[13] = source organism: Marburg virus - Musoke, Kenya, 1980

Kd (HLA-A*02:01 [1]): 5.7 µM
Kd (HLA-A*69:01; source organism: Homo sapiens): 0.00717 µM
Kd (HLA-B*07:02; source organism: Homo sapiens): 4.71 µM
Kd (HLA-B*15:01; source organism: Homo sapiens): 4.76 µM
Kd (HLA-B*40:01; source organism: Homo sapiens): 13.2 µM
Kd (HLA-A*02:50): ≥ 20 µM
Kd (HLA-A*24:03 [2]): ≥ 20 µM
Kd (HLA-A*25:01): 0.0108 µM
Kd (HLA-A*29:02): ≥ 20 µM
Kd (HLA-A*30:01 [3]): ≥ 20 µM
Kd (HLA-B*44:02): ≥ 20 µM
Kd (HLA-B*51:01; source organism: Homo sapiens): ≥ 20 µM
Kd (HLA-B*57:01 [4]): ≥ 20 µM
Sequence: EVIPYTPAM

IC50 (HLA-B*58:01 [5]): 0.136 µM
Sequence: KSLTTTMQF

IC50 (HLA-B*53:01): 4.79 µM
Sequence: YSLEYFQF

Second part, the sequence before the results:

Sequence: SLSSPDSAY
Kd (HLA-B*15:02): 0.0251 µM

Sequence: VPAWLPLGI
Kd (HLA-A*01:01): ≥ 20 µM
Kd (HLA-A*03:01): ≥ 20 µM
Kd (HLA-A*26:01): ≥ 20 µM
Kd (HLA-A*30:01 [6]): ≥ 20 µM
Kd (HLA-A*31:01): ≥ 20 µM
Kd (HLA-A*69:01; [13]): 0.0111 µM
Kd (HLA-B*07:02; [13]): 0.732 µM
Kd (HLA-B*15:01; [13]): ≥ 20 µM
Kd (HLA-B*15:17): 0.288 µM
Kd (HLA-B*18:01): 5.81 µM
Kd (HLA-B*27:05): ≥ 20 µM
Kd (HLA-B*38:01): ≥ 20 µM
Kd (HLA-B*40:01; [13]): ≥ 20 µM
Kd (HLA-B*46:01 [7]): ≥ 20 µM
Kd (HLA-B*48:01): ≥ 20 µM
Kd (HLA-B*57:01 [8]): ≥ 20 µM
Kd (HLA-B*58:01 [9]): ≥ 20 µM
Kd (HLA-A*02:01 [10]): 1.05 µM
Kd (HLA-A*11:01): ≥ 20 µM
Kd (HLA-B*39:01): 2.68 µM
Kd (HLA-B*51:01; source organism: Orthomarburgvirus marburgense): 0.116 µM

Sequence: YTFFFTQYF
Kd (HLA-A*24:03 [11]): 0.0285 µM
Kd (HLA-C*12:03): 0.044 µM
Kd (HLA-A*32:07): 0.0345 µM
Kd (HLA-A*32:15): 0.0911 µM
Kd (HLA-A*68:23): ≤ 0.0001 µM
Kd (HLA-B*15:42): ≥ 5 µM
Kd (HLA-B*45:06): ≥ 5 µM
Kd (HLA-B*46:01 [12]): 0.342 µM
Kd (HLA-B*83:01): ≥ 5 µM
Kd (HLA-C*04:01): ≥ 5 µM
Kd (HLA-C*06:02): 1.39 µM
Kd (HLA-C*14:02): 0.0794 µM

— the Immune Epitope Database (IEDB)
